Assay results as given in patent publication US20200016512A1, “AFFINITY […] FOR PURIFYING IMMUNOGLOBULIN” (KANEKA CORPORATION, priority 2017, published 2020).

System: Fab
Test: Residual binding activity to Fab after alkali treatment (alkali resistance)
Format: physicochemical, human
Settings: 0.2 mL peptide solution + 0.1 mL 45 mM sodium hydroxide, 25° C., 2 hours; compared with SpG mutant SEQ ID NO: 20
Description: Each peptide was subjected to dialysis using ultrapure water and the concentration thereof was adjusted to obtain 4 μM aqueous solution. To 0.2 mL of the aqueous solution, 0.1 mL corresponding to a half amount of the aqueous solution of 45 mM sodium hydroxide aqueous was added. The mixture was incubated at 25° C. for 2 hours and then neutralized by 0.1 mL of 50 mM acetic acid (pH 3.0). After it was confirmed that the mixture was neutralized by using a pH test paper, the mixture was diluted to 20 times by the standard buffer so that the concentration was adjusted to 100 nM.
The peptide solution prepared as the above was defined as a sample before alkali treatment at 0 hr, and 0.1 mL of the above sodium hydroxide aqueous solution and 0.1 mL of 50 mM acetic acid (pH 3.0) were preliminarily mixed and the mixture was added to the sample. The final concentration of the peptide in the solution was 100 nM.
A binding to an immunoglobulin by a similar method to Example 2(2) using Octet and the peptide solutions before and after the alkali treatment prepared in the above (1) was measured. An Fc was used instead of IgG in this experiment in order to simplify a binding pattern. […]
A residual binding activity to a Fab of the Fab-binding activity-enhanced peptides of SEQ ID NOs: 11 and 13 after the alkali resistance was also evaluated. […]

| Substance | Alkali resistance: residual binding activity to a Fab after the alkali treatment (FIG. 3B) |
| --- | --- |
| SEQ ID NO: 11: Fab-binding activity-enhanced immunoglobulin-binding peptide, partly mutated sequence of SEQ ID NOs: 2 to 7 (TTYKLIVKGNTLTGYTTTIAVDAETAEKALKQFANENGVYGEWSYDDATKTFTVTE; novel peptide) | similarly improved |
| SEQ ID NO: 13: Fab-binding activity-enhanced immunoglobulin-binding peptide, partly mutated sequence of SEQ ID NOs: 2 to 7 (TTYRLVIKGVTLTGYTATIAVDAATAEQTLRQFANDNGITGEWAYDTATKTFTVTE; novel peptide) | similarly improved |
